The record followed here is PMC10663602, “The structure of the teleost Immunoglobulin M core provides insights on polymeric antibody evolution, assembly, and function” (Nature Communications, 2023).

Assay [1] has as its target full-length hFcµ expressed without JC (human, UniProt P01871 106-433). As to the kind of experiment: SEC-MALS; Superose 6 Increase 10/300, TBS buffer, 0.5 ml/min, 25 °C; 100 uL of protein at approximately 2 g/L; pIg peaks isolated from mIg by SEC before the analysis. The note with it: both partners purified. A general note: SEC sorts molecules by how far they enter the pores of the column.

The next assay concerns the target T1, hFcµ-tFcµ-chi4 (human | Oncorhynchus mykiss (rainbow …)).
T1 chain: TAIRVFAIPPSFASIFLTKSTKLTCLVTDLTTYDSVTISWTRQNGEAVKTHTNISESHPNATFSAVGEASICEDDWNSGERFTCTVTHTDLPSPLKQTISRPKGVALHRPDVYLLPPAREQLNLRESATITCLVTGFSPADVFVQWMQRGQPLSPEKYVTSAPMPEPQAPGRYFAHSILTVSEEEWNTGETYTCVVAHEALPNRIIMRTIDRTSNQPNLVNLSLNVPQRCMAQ
The description is as above. The note with it: both partners purified.

Chain of full-length hFcµ expressed without JC (P01871 106-433): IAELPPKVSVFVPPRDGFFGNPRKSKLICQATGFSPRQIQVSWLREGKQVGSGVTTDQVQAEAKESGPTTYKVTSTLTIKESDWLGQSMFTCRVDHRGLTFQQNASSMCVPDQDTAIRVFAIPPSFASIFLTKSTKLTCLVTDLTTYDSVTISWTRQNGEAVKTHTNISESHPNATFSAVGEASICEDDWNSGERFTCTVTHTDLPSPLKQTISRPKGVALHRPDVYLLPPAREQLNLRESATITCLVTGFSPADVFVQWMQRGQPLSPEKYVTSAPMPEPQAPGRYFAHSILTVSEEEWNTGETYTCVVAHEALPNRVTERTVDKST

B1: full-length hFcµ expressed without JC (domain or fragment)
chain: TAIRVFAIPPSFASIFLTKSTKLTCLVTDLTTYDSVTISWTRQNGEAVKTHTNISESHPNATFSAVGEASICEDDWNSGERFTCTVTHTDLPSPLKQTISRPKGVALHRPDVYLLPPAREQLNLRESATITCLVTGFSPADVFVQWMQRGQPLSPEKYVTSAPMPEPQAPGRYFAHSILTVSEEEWNTGETYTCVVAHEALPNRVTERTVDKSTGKPTLYNVSLVMSDTAGTCY
modifications: N-glycosylated, disulfide-linked hexamer of Fc dimers without J chain. Secretory form with tailpiece. N-terminus taken at TAIRVF (T343 in the paper's numbering), as in the printed chimeras; entity …
Turning to B1, the “stoichiometry N” value in assay [1] stood at 6.

B2: hFcµ-tFcµ-chi4 (other)
chain: T1 chain
modifications: N-glycosylated; probable tetramer (P1), also a monomer fraction (P2) / N-glycosylated; probable tetramer (P1), also a monomer fraction (P2)
For the molecule B2, in the assay with hFcµ-tFcµ-chi4, the “stoichiometry N” value was around 4.

What is called stoichiometry N is a count of units in the complex or per binding partner.
